Reference: patent US20190359687A1 (Bayer, published 2019)

T1: human glycophorin A in the red blood cell membrane (human, UniProt P02724 20-150)
T1 construct: whole, on cells; used for intact RBC, isolated RBC membranes and transfected cells; the assay field tells which; also called GPA; hGPA
T1 sequence (looked up): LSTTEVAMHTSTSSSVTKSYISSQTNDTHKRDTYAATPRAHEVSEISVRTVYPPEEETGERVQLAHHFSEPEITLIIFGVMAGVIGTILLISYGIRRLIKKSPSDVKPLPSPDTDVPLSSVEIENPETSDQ

T2: recombinant human GPA ectodomain (human, UniProt P02724 20-91)
T2 construct: also called recombinant hGPA ECD; recGPA
T2 sequence: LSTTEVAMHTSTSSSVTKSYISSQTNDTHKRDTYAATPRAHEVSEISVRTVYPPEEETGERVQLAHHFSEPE

T3: purified human glycophorin A protein (Sigma, cat # G5017) (human, UniProt P02724 20-150)
T3 construct: mature; also called Sigma hGPA; Sigma GPA
T3 sequence (looked up): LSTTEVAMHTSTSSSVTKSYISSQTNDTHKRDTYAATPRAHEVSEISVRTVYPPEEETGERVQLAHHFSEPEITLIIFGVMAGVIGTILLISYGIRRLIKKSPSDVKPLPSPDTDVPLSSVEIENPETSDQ

T4: asialo hGPA (desialylated human GPA) (human, UniProt P02724 20-150, desialylated)
T4 construct: mature; also called asialo-GPA
T4 sequence (looked up): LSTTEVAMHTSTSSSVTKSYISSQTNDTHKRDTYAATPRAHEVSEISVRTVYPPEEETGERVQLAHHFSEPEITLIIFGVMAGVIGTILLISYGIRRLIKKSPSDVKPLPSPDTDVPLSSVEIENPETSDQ


Tests used:
dog red blood cells = target: T5, dog red blood cells (dog); assay: FACS, dog RBC
T5 construct: also called dog RBC
Experimental: (§1) Hybridomas were generated from the spleen cells of these mice and these hybriomas were screened first by fluorescence activated cell sorting (FACS) against isolated human and monkey (Cynomolgus monkey and Rhesus monkey) red blood cells (RBC) and then by ELISA against purified human glycophorin A protein (GPA). Isolated RBC were prepared from whole blood from normal human, cynomolgus monkey, and beagle dog, were anticoagulant with sodium heparin (Bioreclamation). 2-3 mL of whole blood was loaded gently on the top of 3 mL Ficoll Plus (Sigma Aldrich) then centrifuged at 500 g for 20 min at room temperature (RT). The RBC pellets were washed 3 times with 10 mL of PBS, and centrifuge 400 g for 10 min at RT. RBC pellets were re-suspended in PBS at the same total volume as the original blood volume to achieve the same RBC cell density as in whole blood and stored at 4° C. Purified human glycophorin A protein was obtained from Sigma Aldrich and coated on ELISA plates at 2 ug/ml. Binding of antibodies to human GPA was detected using appropriate secondary antibodies using methods well known in the art.

[1] = target: T1, human glycophorin A in the red blood …; assay: FACS, hu RBC
Experimental: as §1

[2] = target: T2, recombinant human GPA ectodomain; assay: SPR, IgG
[3] = target: T6, Cynomolgus monkey glycophorin A on Cynomolgus monkey red blood cells (Cynomolgus monkey); assay: FACS, Cyno RBC
T6 construct: whole, on cells; also called Cyno RBC; Cyno GPA
Experimental: as §1

[4] = target: T3, purified human glycophorin A protein …; assay: ELISA, hGPA
Experimental: as §1

[5] = target: T3, purified human glycophorin A protein …; assay: ELISA, purified IgG
Experimental: (§2) The “Sigma GPA” is a crude preparation of human GPA extracted from human red blood cells and is therefore representative of the highly glycosylated form of the native protein.
(§3) EC 50 values were determined from a dilution curve of the antibody. Sigma GPA is partially purified GPA extracted from human red blood cells and purchased from Sigma Chemical Company (cat # G5017), asialo hGPA is human GPA that was desialylated and ECD is the recombinantly expressed ectodomain which is the extracellular portion of GPA.

[6] = target: T4, asialo hGPA (desialylated human GPA); assay: ELISA, purified IgG
Experimental: as §2, §3

[7] = target: T2, recombinant human GPA ectodomain; assay: ELISA, purified IgG
Experimental: as §2, §3

[8] = target: T1, human glycophorin A in the red blood …; assay: FACS on RBC of huGPA/HemA transgenic mice (muTGRBC), 1E+6 RBC/mL, scFv titrated

| Binder | FACS signal (dog red blood cells) | FACS signal [1] | Kd [2] [nM] | koff [2] [s⁻¹] | kon [2] [M⁻¹ s⁻¹] | t½ [2] [min] | FACS signal [3] | EC50 [4] [nM] | EC50 [5] [nM] | EC50 [6] [nM] | EC50 [7] [nM] | EC50 (read off the curve) [8] [µg/mL] |
| --- | --- | --- | --- | --- | --- | --- | --- | --- | --- | --- | --- | --- |
| 13G7G1/C3 (antibody, V domains shown, as m8; also called TPP-3423) VH: RVQLQQSGAELARPGASVKMSCKASGYTFTNYAMHWVKQRPGQGLEWIGYINPKSDNTNYNQKFKDKATLTTDKSSATAYMQLSSLTSDDSAVYYCQTGTRDYWGQGTTLTVSS VL: HIVLTQSPAIMSASPGEKVTIFCSASSSITYVYWFQQKPGTSPKLWIYSTSSLPSGVPARFSGSGSGTSYSLTISRMEAEDAATYYCHQRNSYPFTFGSGTKLEIK | 1.14 relative flourescence units | 2880 relative flourescence units | 5.3 | 0.000405 | 76400 | 28.5 | 294 relative flourescence units | 0.402 | 1.45 | 1.24 | 1.43 |  |
| TPP-7792 scFv (scFv, as m101 (tag, order, linker)) scFv: DIQLTQSPSFLSASVGDRVTITCRASSSVRYIYWFQQKPGKAPKLLIYATSFRQSGVPSRFSGSGSGTEYTLTISSLQPEDFATYYCHQRNSFPYTFGQGTKLEIKEVQLVQSGAEVKKPGASVKVSCKASGYTFTTYAIHWVRQAPGQGLEWMGYINPSSGYTRYNPKFKGRVTMTRDKSTSTAYMELRSLRSDDTAVYYCWTGTRDYWGQGTTVTVSS |  |  |  |  |  |  |  |  |  |  |  | ~20 |
